Experimental data reported in patent US5650283.

Key:
[1] = tested on: human AhR + ARNT expressed in yeast (Homo sapiens); assay: cell_activity; details: lacZ induction over background by betaNF or alphaNF; none with AHR or ARNT only
[2] = tested on: LexA(1-202)-AHRNΔ166 chimera (synthetic construct); assay: cell_activity; details: average lacZ induction over background, agonist dependent

Substance | activity [1] | activity [2]
DRE2-DRE3 lacZ reporter (pDRE23-Z) | 12 fold | 
eight LexA operator lacZ reporter (pSH18-34) |  | 90 fold
